Assay results from a protein production outcome set (Wang et al. 2014).

Assay: label from the status in PepcDB records

Sequence	protein production
STRPVGGTEYSWCRAIDGGTGIAVIALLLSRTPKLQNLQNTLDKLQIYHPTLRSNIRFDASANSFSFVVTSAADSHVEIHPFDSVSTAQIIRDSDDPCADPHRIILEHEMNKNTWINPHRWIKSESRVFIVSLYDLTDDGEQRILTFRLNTAAVDRTAAVTLLREFMKETAADGFGNGPVVAATETAVGLGKAIEELIPSGKGDKPFWARGIDVLGYSLNAFRFSNLNFVDAENSNRRSQLVRLKLDRDQTLKLVAGCKARGLKLWAALASSALIAAYSSKNLPPYQGEKYAVVTLSDCRSILEPPLTSNDFGFYHAGILHTHDLTGEEKLWDLAKRCYDSFTSSKNSNKQFTDMSDLNFLMCKAIENPNLTPSSSLRTAFISIFEDPVIDESPEPELASLGVQDYIGCASIHGVGPSVAVFDALRDGKLDCAFVYPSPLHSREQMDGLIQHMKTILLEGSASSF	not failed
MKPRIYVKVKPERLGAVIGPRGEVKAEIMRRTGTVITVDTENSMVIVEPEAEGIPPVNLMKAAEVVKAISLGFPPEKAFRLLEEDQILVVVDLKQVVGDSQNHLKRIKGRIIGEGGRARRTIEEMTDTYINVGEYEVAIIGDYERAMAAKQAIEMLAEGRMHSTVYRHLERIMREIKRRERLKMWAREEL	not failed
MSLTVVLIVDDHHLIRAGAKNLLEGAFSGMRVEGAETVSDALAFLEADNTVDLILLDVNLPDAEAIDGLVRLKRFDPSNAVALISGETDHELIRAALEAGADGFIPKSADPQVLIHAVSLILEGEIFLPRSYLQGGRMAEVATPLDEGHHHHHH	not failed
MRSRPTEGNLLVSIGIPFLNPGPYLDLAVRSVFAQTYLNWELILVDDGSTDGSYERAVAIQDPRVRVLRDGQNKGLPARLNEIVRLAKGELVARMDADDAMHPLRLEKQVGFLQANPELDGVTTGAYLIDAEDRPIALLPGRQPSAQEVLARGGFLHPSLLARKSWFEAHPYSLDYPRAEDRELFVRTFKTSRLHVLSEPLYFYRWFGVPRGKTLRIGYRSERKVMWKYGPNLVGWGPSLRLIALSFGKELLTWFLEWTHLEKGFQTRRAFQPLLEMDQREALRTLKVIRETCVPGWDLEHHHHHH	failed
MFPNSILGRPPFTPTHQQHNNFFALSPTLYSHQQLIDAQFNFQNVDLSRAVSLQPLTYGTVSPIQTSTSPLFRGRKRISDEKAFRLDGKRQRFHSPHQEPTIINQLVPLSGDRRYSMPPLFHTHYVPEIVRCVPPLREIPLLEPREITLPEAKDKLSQQILELFETCQQQASDLKKKELCRAQLQREIQLLFPQSRLFLVGSSLNGFGARSSDGDLCLVVKEEPCFFQVNQKTEARHILTLVHKHFCTRLSGYIERPQLIRAKVPIVKFRDKVSCVEFDLNVNNTVGIRNTFLLRTYAYLENRVRPLVLVIKKWASHHEINDASRGTLSSYSLVLMVLHYLQTLPEPILPSLQKIYPESFSTSVQLHLVHHAPCNVPPYLSKNESSLGDLLLGFLKYYATEFDWNTQMISVREAKAIPRPDDMEWRNKYICVEEPFDGTNTARAVHEKQKFDMIKDQFLKSWQRLKNKRDLNSVLPLRAATLKR	failed
MKSKNQFFVSLLLKSTLVFSSFLMFADISRGQATVSISQQKILAQALTNQEREELTRLRAEKGERAQIQADFEQAFSRTTVLLNIWLVILSLFPVAIIALFWLLRRVAIREIVNRAMSQFEGIEKLETQLIIVKQDAENLIQDAKSINRLLEREIESLQQKIKIEQENLSVVTSELLQAKTDNLAQITTEIANFQSKLESLVGEFAHRLTQSDSDTKKQRDITLENIIKIESLLEVQLTELQKEAERHQKAVLGNIDTAGVDFNNYLINLQAEAQKNKNSVFEDFSHFQAELQGDLQQQKDIQLGNIQEVANIFNNQVSELQLEAQKQKDSLDNNLNKLHTDAQIRKDKIIHRLEELKDLFQAQVAELQIQTQQELASYLSELKIDTGNSKEKIIEELEKSGSEFVSQFSELQHNAQQQKLLILQKLEKLETDFVNQLSELQLDAQRRKDVILQELAENQPPVVVEAQPIHKDQLEVLVNENEQPQLSFDECIEQGDSLFSQKSYEEAITCYEQAVKIQQDNAVAWFKHGLTLARLKRFKDAIKSYHQAIKIKPDYHQAWCDLGVAFGNIRRHQEAFAAFDKATQVKPDDAVVWLNRGLALIELEEYEEAIASFDQALELQPNSPKIWDKRGYSLVRLGRDDEAITSFNQALEIKPEYASAYYNKAACYAMQGDVNSSLENLQQAIILNPKYKEDAATDIDFDEIAGDEKFKQLIATIGIRFDF	failed
MPHSRPLSRLRASLILLLVSFIWGSAFVAQKTAFDAVEGATAPALGPLAFTGARFLLGALVVLPFALRENRQARSRGAPGAGLLAIFCGIGAVLFAASFTQQLGIIGTSVTNAGFLTALYVPLVPVVALVIFRQSVRKMIWPGAAGCLAGLWLLTGAATNGLSALTAGDLWVLVGALFWAFHVTVVGVMATRSGRPLTLAAAQFLTCGVLGWAGAFAFETPTLAGMAAIAPEIAYAGILSVGVAFTLQVVAQRHTHPAAAAIILSMEMVFASLAAVVVLGERLSGVQWLGAGLILASIIAVESAAALGDRRRGAAGALTP	failed
VGKEKAEVELLQVDVDLQADIVAKYNAQLQKAVQVEEKKAREAATEAVKEMVKAEYEERYAEDENLATIMRDVAEILEQMEHAEVRRLITEDKIRPDGRKIDEIRP	failed
MDPLKRVENELKKCVKCGACRAHCPAFATFGKEPAVARGKVALAQHLLKGDIELDDATYAAMSKCLLCGSCVEKCPNDVPTDEIVVVAREALSGQRGLTTFHAAVGRVIRNRSLMKFGAAAARILGPLFFRKVPETSGLRLRFPLPFLGGKRHIPSIAKKPFLDRHPEVIPGEPGKPRIVYFVGCMTNFCYPQVGEAALALFRHLGCTVIIPKNQQCCGLPGMSGGDLDTVRGLAEKNLAELERYEADYIMTACATCGGALHKFYPNLVGKRHPELAARLKAIAEKTVDAAQLLQKLGLNPEETGAGSDIRVTYHDPCHLRTRAITRQPRELLQGTPGVELAEMEGADKCCGLGGTFNVYHYESSLAINKMKSAAIINTGADAVVTGCPGCMMQLSDGLKQQRNRTRVLHTLEILARSIRP	failed
MSMNDTYQPINCDDYDNLELACQHHLMLTLELKDGEKLQAKASDLVSRKNVEYLVVEAAGETRELRLDKITSFSHPEIGTVVVSES	failed
MLHVHILSWVLAIILFIATYLNYSKTQGASPYYKPLHMALRLFMLLTLISGFWELIEEFMAASNGEGGNHMLLTLKMLCGLAVIAFMEISIAKRKKQQTSHKFFWITIILIIITMAIGVILPWGPISKIFGIS	failed
MVKVTYDIPTCEDYCALRINAGMSPKTREAAEKGLPNALFTVTLYDKDRLIGMGRVIGDGGTVFQIVDIAVSKSYQGQDYGSLIMEHIMKYIKNVSVESAYVSLIADYPADKLYAKFGFMPTEPDSGGMYIKY	not failed
MQRQGSGGGSAVIRVRVAGGVLLAAHLMLVVWITLRPLDVPWVSPANLHPFAGIRADLALGPREAVRRIGEGLGLLAPLGVLLPMVAGRLAVSPLASLTRTVAAGALISLGIELLQTGVPGQVVDVDSLLLNTVGVALAHLAIVPAGRARLRRRAETRRRAALGREELSQGLTPTIPRVGIAP	failed
MGTITGEFTEHSAEAIAAMLSYIVQTEYEKKQLAKDTLQKYEEVVFLSQFANAVATCTGLQELIEVIRAEIRQVISVDEIFLYLYDQSQDSLTPLLYKTEESLQNFKAIEKIVERVLKLNQVEVIDDIQNDQDYLNQPSKIRSLLCYSLTVQNSIIGVLGLAHYQVKHFDSSDLNLFSTLTGQVAAAIRTAQYYETIKNYSQTLEIRLEHHHHHH	failed
MSLINARLIAFEDQWVPALNAPLKQAILADSQDAQLAAAMTYSVLAGGKRLRPLLTVATMQSLGVTFVPERHWRPVMALELLHTYSLIHDDLPAMDNDALRRGEPTNHVKFGAGMATLAGDGLLTLAFQWLTATDLPATMQAALVQALATAAGPSGMVAGQAKDIQSEHVNLPLSQLRVLHKEKTGALLHYAVQAGLILGQAPEAQWPAYLQFADAFGLAFQIYDDILDVVSSPAEMGKATQKDADEAKNTYPGKLGLIGANQALIDTIHSGQAALQGLPTSTQRDDLAAFFSYFDTERVNEGHHHHHH	not failed
MLKSGETNGVQSNVVRASSRMRGLAEPGIKDNQGRTWRRLIVTDCFISTKVWYSLYKGTLEATRKRVSDYISDLTMVEIIGLQAFTTDGGIAS	failed
ARHPQRVVAAILVAPASPESFSENGHILPEHDDTPTIRNLLPKQTLGICGLVIASENDPWMPFNQAASLAKSFGLPTINLGLSGHINVDSGHGQWPLIDVLVGNFL	failed
MKPRVEILMSTYNGEKFLAEQLDSILAQTHQYFVLTVRDDGSKDGTPDILSRYAATDERITYCVQENRGVVGSFYWLLKNSSPLSNYVAFSDQDDVWLPNKLERALDVLSRYDETLPLLYCSRVEYVSAGLGHLDDSPMMVRPVCLNNALIQNVATGCTVVMNKAARDLLLEREWPPQVLMHDWWSYIVVSAFGKVVYDDFVSIKYRQHGGNVIGGTVSFVSDYRSRIINFLSRRRKGVFGCYDQAYSFWLGYKDELKGESRGIVSQFIESKRSFLSRLNYLTSSQRVYRHRFIDDVLVRLLILSNKYLEHHHHHH	failed
MQPPSHAPRQLAAADLAVGQVVAQREIRLDAQAFAQFAALTGDAHPIHYDAGYAQRQGLRAPIAHGLLLVAISALGATPLSAQLHDAMVAMVGVEAVFMRPVYVDETVQCVYRVAQIEHVAKGRSKTTIAVSIHTTDAPPDAARQAHCVVHLTFLLKTHLQG	failed
MPWLQVRLAITPEQAETYEDALLEVGAVSVTFMDAEDQPIFEPDLGTTPLWSRTHLLALFEADTDETALLAHLALLTGGDLPEHHVEEIADQDWERSWMDNFQPMRFGRRLWIVPSWHAAPEPDAVNLLLDPGLAFGTGTHPTTALCLEWLDGQELAGRQVLDFGCGSGILAIAALLLGAERAVGTDIDPQALEASRDNASRNGIEPARFPVYLPADLPQRQADVLVANILAGPLVSLAPQLTGLVRPGGLLALSGILAEQAEEVRAAYSAHFDLDPTAEREGWIRISGRRRAD	failed
METLELFKVISRWLFLLSIGYYLLTNLQWYSYKIERVFFKHHKWRWHILYFFMPILFFFLLGDYFYIYLYVAQLPGVMLWAKKLDKPLIFTGRVKRFFAIYAGFMLFSELLCTTTGGECDKVLYLFPLFFTILITYVLERVLLNRYATAAKDKLASMPNLTIIAITGSYGKTSLKNFLAQILNDNFKVHASPRSVNTFAGIVADINENLSPLSDIYIAEAGARTRGDIKEIGVLLEHHYGIVGKVGEQHMEYFRTLENVRETKFELAQSPRLKELFSYEGNTPPSGIKATSFPTETRNIKATLKGTSFEMLIEGQFYPFETEVLGEFNVTNISAAILVALRLGIPIEKIQRQVARLKPIPHRLQKMEVNLKLILDDSFNGNLEGMLEAIRLSSLYYGRKVIVTPGLVESTEEANTTLAQAINETFDIAILTGELNLKTLSAHIQKPQKVVVKEKEALEEVLKATTREGDLILFANDAPSYI	failed
AYSELQMLSPSERQCVETVVNMGYSYECVLRAMKKKGENIEQILDYLFAH	not failed
MSKKPHSIKVPTQYRATAKILKAALEQQKCIKTLIFAEKHARTRSLHTVLKKFSENRVALEKAIEETGLLRDNPSFDPSLAKILVTELLFGRKELNGESKPVQTVRSYKDRLLNSIRDFGVQRKEPNPRYVRINTNLYSLAEALDYLHKSDWRRKELPADASYADFLTAIKSLAENEFMTDLHVEGVLIFPAKWSNYWVRHPLVHSKRFILQNKATCLAAELLAPPSGATVLDMCAAPGMKTVHICNVMQNKGCIYSVEQDHVRYNTLCEITKDAGCDIVKPILGDALNLTPERFPDVEYILVDPSCSGSGMQNRMTVCDEPKEDKRLQKLQGLQIKILSHAMGAFPNVKRIAYCTCSLWKEENEQVVQRCLQLNPSFKLLSCKKALRNKWHNVGDKDYPNIGKNVLYCQPDSDLTDGIFLALFEKRREGEKD	failed
